In patent US20030148956A1 (PROCTER AND GAMBLE, published 2003):
Ends that are not written are not given here.

T1: CRF2R
T1 sequence (Q13324 whole entry, species assumed, looked up): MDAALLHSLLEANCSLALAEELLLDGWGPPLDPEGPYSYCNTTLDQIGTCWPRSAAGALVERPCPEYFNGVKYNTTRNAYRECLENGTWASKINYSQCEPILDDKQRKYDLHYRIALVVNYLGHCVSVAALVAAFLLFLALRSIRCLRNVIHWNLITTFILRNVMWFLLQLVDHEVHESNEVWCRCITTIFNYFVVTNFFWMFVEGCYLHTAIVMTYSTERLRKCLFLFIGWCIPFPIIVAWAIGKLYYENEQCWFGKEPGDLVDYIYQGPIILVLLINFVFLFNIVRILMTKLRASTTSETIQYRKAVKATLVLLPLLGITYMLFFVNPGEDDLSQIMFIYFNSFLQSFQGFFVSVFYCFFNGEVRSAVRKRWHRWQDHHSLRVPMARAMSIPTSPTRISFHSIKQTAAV


The binders below were run against T1, CRF2R (assay: cell-based or functional assay).

Row | Binder | CRF2R EC50 [nM] | CRF2R Emax [%]
1 | SQEIVLSLDVPIGLLREVLEMTKADQLAQQAHSNRKLLDIA-NH2 [SEQ ID NO 152] | > 100 | 19
2 | IVLSLDVPIGLLQILLEQEKQEKEKQQATTNARILARV-NH2 [SEQ ID NO 167] | 13 | 100
3 | ZGPPISIDLPFHLLRKMIEIEKQEKEKQQATTNARILARV (C-terminal amide) [SEQ ID NO 146] | 8.2 | 84.5
4 | ZGPPISIDLPFQLLRKMIEIEKQEKEKQQATTNRLLLATV (C-terminal amide) [SEQ ID NO 17] | 10.2 | 96
5 | ZGPPISIDLPTYLLRKMIEIEKQEKEKQQATTNARILARV (C-terminal amide) [SEQ ID NO 151] | 36.8 | 96
6 | ZGPPISIDVPTYLLRILIEIEKQEKEKQQATTNARILARV (C-terminal amide) [SEQ ID NO 169] | 17.8 | 93
7 | ZGPPISIDLPFQLLRKMIEIEKQEKEKQQATTNARILARV (C-terminal amide) [SEQ ID NO 148] | 9.45 | 51.5
8 | ZGPPISIDVPTYLLRKMIEIEKQEKEKQQATTNARILARV (C-terminal amide) [SEQ ID NO 170] | 75 | 83
9 | ZGPPISIDLPFYLLRKMIEIEKQEKEKQQATTNARILARV (C-terminal amide) [SEQ ID NO 147] | 6.75 | 94
10 | ZGPPISIDLPIQLLRKMIEIEKQEKEKQQATTNARILARV (C-terminal amide) [SEQ ID NO 150] | 34.6 | 70.5
11 | ZGPPISIDLPIYLLRKMIEIEKQEKEKQQATTNARILARV (C-terminal amide) [SEQ ID NO 149] | 26.2 | 95.5
12 | IVLSLDVPIGLLQILLEMARAEQLAQQAHSNRKLMEII-NH2 [SEQ ID NO 164] | 2.24 | 92
13 | IVLSLDVPIGLLQTLLELARTQSQRERAEQNRIIFDSV-NH2 [SEQ ID NO 160] | 9.15 | 87
14 | ZGPPISIDLSLELLRKMIEQARARAAREQATTNARILARV (C-terminal amide) [SEQ ID NO 156] | 9.29 | 79
15 | IVLSLDVPIGLLQILLEIEKQEKEKQQAANNRLLLDTI-NH2 [SEQ ID NO 158] | 6.37 | 89
16 | IVLSLDVPIGLLQILIEIEKQEKEKQQAANNARILARV-NH2 [SEQ ID NO 166] | 3.7 | 99
17 | IVLSLDVPIGLLQILLEQTKADQLAQQAHSNRKLLDIA-NH2 [SEQ ID NO 159] | 90.8 | 62
18 | IVLSLDVPIGLLQEVLEMARAEQLAQQAHSNRKLMEII-NH2 [SEQ ID NO 165] | > 100 | 75
19 | SEEPPISLDLTFHLLREVLEMARAEQLAQQAHTNARILARV-NH2 [SEQ ID NO 161] | > 100 | 88
20 | IVLSLDVPIGLLQILIEIEKQEKEKQQAANNRLLLDTI-NH2 [SEQ ID NO 154] | 10.3 | 100
21 | ZGIVLSLDVPIGLLRKMIEIEKQEKEKQQAANNRLLLDTI (C-terminal amide) [SEQ ID NO 153] | 9.28 | 97
22 | ZGPPISIDLPFQLLRKMIEIEKQEKEKQQAAANRLLLDTV (C-terminal amide) [SEQ ID NO 15] | 6.56 | 97
23 | ZGPPISIDLPFQLLRKMIEIEKQEKEKQQATTNRLLLDTV (C-terminal amide) [SEQ ID NO 16] | 7.88 | 86
24 | SQEPPISLDLTFHLLREVLEQARARAAREQATTNARILARV-NH2 [SEQ ID NO 157] | 42 | 60.6
25 | IVLSLDVPIGLLQILLEMTKADQLAQQAHSNRKLLDIA-NH2 [SEQ ID NO 155] | 20.6 | 94
26 | SEEPPISLDVPIGLLQEVLEMARAEQLAQQAHSNRKLMEII-NH2 [SEQ ID NO 162] | > 100 | 7
27 | IVLSLDVPIGLLQILIEIEKQEKEKQQAATTNARILARV-NH2 [SEQ ID NO 168] | 4.9 | 75
28 | IVLSLDVPIGLLQILLEQARARAAREQATSNRKLMEII-NH2 [SEQ ID NO 163] | 4.49 | 96

Each binder was assayed against CRF1R (assay: cell-based or functional assay).

Row | Binder | CRF1R EC50 [nM] | CRF1R Emax [%]
29 | SQEIVLSLDVPIGLLREVLEMTKADQLAQQAHSNRKLLDIA-NH2 [SEQ ID NO 152] | > 100 | 4
30 | IVLSLDVPIGLLQILLEQEKQEKEKQQATTNARILARV-NH2 [SEQ ID NO 167] | 1000 | 15
31 | ZGPPISIDLPFHLLRKMIEIEKQEKEKQQATTNARILARV (C-terminal amide) [SEQ ID NO 146] | 103 | 100
32 | ZGPPISIDLPFQLLRKMIEIEKQEKEKQQATTNRLLLATV (C-terminal amide) [SEQ ID NO 17] | 260 | 98
33 | ZGPPISIDLPTYLLRKMIEIEKQEKEKQQATTNARILARV (C-terminal amide) [SEQ ID NO 151] | 1000 | 19.9
34 | ZGPPISIDVPTYLLRILIEIEKQEKEKQQATTNARILARV (C-terminal amide) [SEQ ID NO 169] | 978 | 26
35 | ZGPPISIDLPFQLLRKMIEIEKQEKEKQQATTNARILARV (C-terminal amide) [SEQ ID NO 148] | 295 | 100
36 | ZGPPISIDVPTYLLRKMIEIEKQEKEKQQATTNARILARV (C-terminal amide) [SEQ ID NO 170] | 1000 | 9
37 | ZGPPISIDLPFYLLRKMIEIEKQEKEKQQATTNARILARV (C-terminal amide) [SEQ ID NO 147] | 102 | 96
38 | ZGPPISIDLPIQLLRKMIEIEKQEKEKQQATTNARILARV (C-terminal amide) [SEQ ID NO 150] | 1000 | 5.7
39 | ZGPPISIDLPIYLLRKMIEIEKQEKEKQQATTNARILARV (C-terminal amide) [SEQ ID NO 149] | 1000 | 40.7
40 | IVLSLDVPIGLLQILLEMARAEQLAQQAHSNRKLMEII-NH2 [SEQ ID NO 164] | > 100 | 26
41 | IVLSLDVPIGLLQTLLELARTQSQRERAEQNRIIFDSV-NH2 [SEQ ID NO 160] | > 100 | 10
42 | ZGPPISIDLSLELLRKMIEQARARAAREQATTNARILARV (C-terminal amide) [SEQ ID NO 156] | > 100 | 6
43 | IVLSLDVPIGLLQILLEIEKQEKEKQQAANNRLLLDTI-NH2 [SEQ ID NO 158] | > 100 | 15
44 | IVLSLDVPIGLLQILIEIEKQEKEKQQAANNARILARV-NH2 [SEQ ID NO 166] | 438 | 95
45 | IVLSLDVPIGLLQILLEQTKADQLAQQAHSNRKLLDIA-NH2 [SEQ ID NO 159] | > 100 | 9
46 | IVLSLDVPIGLLQEVLEMARAEQLAQQAHSNRKLMEII-NH2 [SEQ ID NO 165] | > 100 | 19
47 | SEEPPISLDLTFHLLREVLEMARAEQLAQQAHTNARILARV-NH2 [SEQ ID NO 161] | > 100 | 77
48 | IVLSLDVPIGLLQILIEIEKQEKEKQQAANNRLLLDTI-NH2 [SEQ ID NO 154] | > 100 | 7
49 | ZGIVLSLDVPIGLLRKMIEIEKQEKEKQQAANNRLLLDTI (C-terminal amide) [SEQ ID NO 153] | > 100 | 7
50 | ZGPPISIDLPFQLLRKMIEIEKQEKEKQQAAANRLLLDTV (C-terminal amide) [SEQ ID NO 15] | 85.3 | 86
51 | ZGPPISIDLPFQLLRKMIEIEKQEKEKQQATTNRLLLDTV (C-terminal amide) [SEQ ID NO 16] | 136 | 98
52 | SQEPPISLDLTFHLLREVLEQARARAAREQATTNARILARV-NH2 [SEQ ID NO 157] | 100 | 91
53 | IVLSLDVPIGLLQILLEMTKADQLAQQAHSNRKLLDIA-NH2 [SEQ ID NO 155] | 40.6 | 16
54 | SEEPPISLDVPIGLLQEVLEMARAEQLAQQAHSNRKLMEII-NH2 [SEQ ID NO 162] | > 100 | 11
55 | IVLSLDVPIGLLQILIEIEKQEKEKQQAATTNARILARV-NH2 [SEQ ID NO 168] | 1000 | 52
56 | IVLSLDVPIGLLQILLEQARARAAREQATSNRKLMEII-NH2 [SEQ ID NO 163] | > 100 | 13
